Here are results for ten substances from publication PMC11445458.

Several values for one entry are separate records, joined by “and”; a condition that tells them apart may be missing. Equal values may be shown once.

For assay [1], the target named is adaptor protein (gp41) of bacteriophage JBD30 (bacteriophage JBD30 (Casadabanvirus JBD30)). The experiment in a line: cryo-EM structure; single-particle reconstructions (icosahedral, C5, C12, C6, C3, asymmetric, localized) of purified JBD30 virions and empty particles in phage buffer (10 mM MgSO4, 10 mM NaCl, 50 mM Tris pH 8); native assembly.
For assay [2], the target named is baseplate hub protein (gp53) of bacteriophage JBD30 (bacteriophage JBD30 (Casadabanvirus JBD30)). Described as above.
The target of assay [3] is distal tail protein (gp49) of bacteriophage JBD30 (bacteriophage JBD30 (Casadabanvirus JBD30)). The description is as above.
For assay [4], the target named is major capsid protein (gp38) of bacteriophage JBD30 (bacteriophage JBD30 (Casadabanvirus JBD30)). The assay is described as above.
Assay [5] shares this target. The experiment in a line: cryo-EM structure; single-particle reconstruction of JBD30 procapsids found in the purified phage sample (icosahedral, C5, localized C12 portal).
The target in assay [6] is major tail protein (gp44) of bacteriophage JBD30 (bacteriophage JBD30 (Casadabanvirus JBD30)). As to the kind of experiment: cryo-EM structure; single-particle reconstructions (icosahedral, C5, C12, C6, C3, asymmetric, localized) of purified JBD30 virions and empty particles in phage buffer (10 mM MgSO4, 10 mM NaCl, 50 mM Tris pH 8); native assembly.
Assay [7] concerns the target minor capsid protein (gp39) of bacteriophage JBD30 (bacteriophage JBD30 (Casadabanvirus JBD30)). Described as above.
For assay [8], the target named is portal protein (gp32) of bacteriophage JBD30 (bacteriophage JBD30 (Casadabanvirus JBD30)). Described as above.
The target is the same in assay [9]. As to the kind of experiment: cryo-EM structure; single-particle reconstruction of JBD30 procapsids found in the purified phage sample (icosahedral, C5, localized C12 portal).
Assay [10] addresses receptor binding protein (gp54) of bacteriophage JBD30 (bacteriophage JBD30 (Casadabanvirus JBD30)). The experiment in a line: cryo-EM structure; single-particle reconstructions (icosahedral, C5, C12, C6, C3, asymmetric, localized) of purified JBD30 virions and empty particles in phage buffer (10 mM MgSO4, 10 mM NaCl, 50 mM Tris pH 8); native assembly.
Assay [11] deals with stopper protein (gp42) of bacteriophage JBD30 (bacteriophage JBD30 (Casadabanvirus JBD30)). The assay is described as above.
Assay [12] addresses tape measure protein (gp46) of bacteriophage JBD30 (bacteriophage JBD30 (Casadabanvirus JBD30)). The description is as above.

One may read the stoichiometry N as a count of units in the complex or per binding partner. “adaptor protein (gp41) of bacteriophage JBD30 (natural protein)”: the stoichiometry N in assay [1] amounted to 12.
In the case of “baseplate hub protein (gp53) of bacteriophage JBD30 (natural protein)”, the stoichiometry N in assay [2] amounted to 3.
Take “distal tail protein (gp49) of bacteriophage JBD30 (natural protein)”: the stoichiometry N in assay [3] worked out at 3.
“major capsid protein (gp38) of bacteriophage JBD30 (natural protein)”: the stoichiometry N was 5 and 6 in assay [4]; 5 and 6 in assay [5].
Consider “major tail protein (gp44) of bacteriophage JBD30 (natural protein)”, for which, in assay [6], the stoichiometry N worked out at 6.
In assay [7], “minor capsid protein (gp39) of bacteriophage JBD30 (natural protein)” came in with a stoichiometry N of 3.
For the substance “portal protein (gp32) of bacteriophage JBD30 (natural protein)”, the stoichiometry N in assay [8] and in [9] was 12 throughout.
As to “receptor binding protein (gp54) of bacteriophage JBD30 (natural protein)”, in assay [10], the stoichiometry N is 3.
In assay [11], “stopper protein (gp42) of bacteriophage JBD30 (natural protein)” displayed a stoichiometry N of 6.
The substance “tape measure protein (gp46) of bacteriophage JBD30 (natural protein)” displayed a stoichiometry N in assay [12] of 3.
